Source: patent EP4628507A1 (Jiangsu Hengrui Pharmaceuticals Co., Ltd., dated 2025)
Like-named read-outs stand apart in the source and are kept apart here.

Assays:
[1] = target: T1, human 4-1BB on the surface of HEK293-Hu4-1BB cells (human, UniProt Q07011 24-255); test: flow cytometry on HEK293-Hu4-1BB cells
T1 construct: whole, on cells; also called CD137; TNFRSF9

[2] = target: T1, human 4-1BB on the surface of …; test: cell-based or functional assay
[3] = target: T1, human 4-1BB on the surface of …; test: cell-based or functional assay; remark: listed apart in the source
[4] = target: T1, human 4-1BB on the surface of …; test: flow cytometry on HEK293-Hu4-1BB cells; remark: listed apart in the source

T1 sequence (Q07011 24-255): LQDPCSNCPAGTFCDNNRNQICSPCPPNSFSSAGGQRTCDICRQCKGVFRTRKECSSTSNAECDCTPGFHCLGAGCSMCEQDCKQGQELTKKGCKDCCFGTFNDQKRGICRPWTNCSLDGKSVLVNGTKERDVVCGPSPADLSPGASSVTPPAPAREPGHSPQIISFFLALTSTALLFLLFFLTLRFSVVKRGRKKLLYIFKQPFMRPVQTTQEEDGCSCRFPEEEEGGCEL

B1: Urelumab (antibody, V domains shown)
VH: QVQLQQWGAGLLKPSETLSLTCAVYGGSFSGYYWSWIRQSPEKGLEWIGEINHGGYVTYNPSLESRVTISVDTSKNQFSLKLSSVTAADTAVYYCARDYGPGNYDWYFDLWGRGTLVTVSS
VL: EIVLTQSPATLSLSPGERATLSCRASQSVSSYLAWYQQKPGQAPRLLIYDASNRATGIPARFSGSGSGTDFTLTISSLEPEDFAVYYCQQRSNWPPALTFGGGTKVEIK
[1]
  EC50: 1.18 nM
[2]
  Fold change in Emax, FcγRIIb-mediated activation of HEK293-4-1BB cells: 2.61 fold
  Fold change in Emax, activation of HEK293-4-1BB cells (no FcγRIIb): 1.7 fold
[3]
  EC50, 4-1BB/NF-κB luciferase reporter, FcγRIIb cross-linking: 0.027 nM
  EC50, 4-1BB/NF-κB luciferase reporter, no FcγRIIb cross-linking: 2.19 nM
  Emax, 4-1BB/NF-κB luciferase reporter, FcγRIIb cross-linking: 9.39 relative to the antibody-free group
  Emax, 4-1BB/NF-κB luciferase reporter, no FcγRIIb cross-linking: 4.3 relative to the antibody-free group
[4]
  EC50: 1.64 nM
